{"source": "patent US20040216177A1", "about": "“Congenic rats containing a mutant GPR10 gene” (OTSUKA PHARMACEUTICAL CO., LTD., priority 2003, published 2004)", "key": {"[1]": {"biological_target": "cloned human NH2-terminus truncated (mutant) GPR10 (306 amino acids) (human) (UniProt P49683)", "experiment": "cell-based or functional assay"}, "[2]": {"biological_target": "cloned human wild-type GPR10 (370 amino acids) (human) (UniProt P49683)", "experiment": "cell-based or functional assay"}, "[3]": {"biological_target": "cloned human wild-type GPR10 (370 amino acids) (human) (UniProt P49683)", "experiment": "displacement of 0.05 nM [125I]PrRP from CHO-hGPR10 cell membranes, 2-site competition model, site 1"}, "[4]": {"biological_target": "cloned human wild-type GPR10 (370 amino acids) (human) (UniProt P49683)", "experiment": "displacement of 0.05 nM [125I]PrRP from CHO-hGPR10 cell membranes, 2-site competition model, site 2"}, "[5]": {"biological_target": "cloned human wild-type GPR10 (370 amino acids) (human) (UniProt P49683)", "experiment": "radioligand saturation binding on CHO-hGPR10 cell membranes, 2-site model, site 2"}, "[6]": {"biological_target": "cloned human wild-type GPR10 (370 amino acids) (human) (UniProt P49683)", "experiment": "radioligand saturation binding on CHO-hGPR10 cell membranes, at [125I]PrRP concentrations near the KD"}, "[7]": {"biological_target": "cloned human wild-type GPR10 (370 amino acids) (human) (UniProt P49683)", "experiment": "saturation radioligand binding on CHO-hGPR10 cell membranes; non-specific binding determined with 1.0 uM unlabelled PrRP"}, "[8]": {"biological_target": "cloned human wild-type GPR10 (370 amino acids) (human) (UniProt P49683)", "experiment": "radioligand saturation binding on CHO-hGPR10 cell membranes, 2-site model, site 1"}, "[9]": {"conditions": "rats; cited from earlier work"}, "[10]": {"biological_target": "T1, cloned human wild-type GPR10 (Homo sapiens, UniProt P49683)", "T1 construct": "For cloning of human wild-type GPR10 ORF, a DNA fragment was amplified from human genomic DNA; expressed in transfected cells", "T1 sequence (P49683 1-370)": "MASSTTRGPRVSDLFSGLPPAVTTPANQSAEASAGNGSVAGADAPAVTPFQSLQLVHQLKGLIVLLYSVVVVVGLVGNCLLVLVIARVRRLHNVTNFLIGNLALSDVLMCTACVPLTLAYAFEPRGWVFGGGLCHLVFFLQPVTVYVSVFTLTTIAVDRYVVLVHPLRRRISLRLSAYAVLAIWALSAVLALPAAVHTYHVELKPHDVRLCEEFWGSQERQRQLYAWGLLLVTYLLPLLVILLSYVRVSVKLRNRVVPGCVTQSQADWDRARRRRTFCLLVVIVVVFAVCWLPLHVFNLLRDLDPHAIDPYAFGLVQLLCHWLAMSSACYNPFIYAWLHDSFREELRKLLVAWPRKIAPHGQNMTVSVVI", "experiment": "[3H]arachidonic acid release from CHO-hGPR10 cells", "assay_type": "cell-based", "experimental": "CHO cells stably expressing cloned human wild-type GPR10 (CHO-hGPR10 cells) were generated as described in Examples 2-3. CHO-hGPR10 were cultured in F-12 HAM medium supplemented with 2.0 mM L-glutamine, 10% (v/v) dialyzed fetal bovine serum, 1.0% hypoxanthine-thymidine supplement, and 1.0% G-418 selection agent. All of the cells were maintained at 37° C. in an atmosphere of 5% CO2 and passaged when ˜80% confluent using a non-enzymatic cell dissociation buffer (Sigma-Aldrich Corporation). CHO-hGPR10 cells were harvested when ˜70% confluent for use in [^3H]arachidonic acid release assays, which were performed as follows:\nCHO-hGPR10 cells were plated at a density of 150,000 cells/well in 12 well tissue culture plates, rinsed 24 hr later with calcium and magnesium free Hank's Balanced Salt Solution (Gibco-BRL), and left to incubate for 4 hr in F-12 culture medium (1.0 ml/well) containing 100 nCi/ml of [^3H]arachidonic acid. The cells were then rinsed and incubated for 5 min in 1.0 ml/well of Hank's Balanced Salt Solution (Invitrogen Corp. CA) containing 20 mM HEPES buffer (Sigma-Aldrich Corp.) and 0.1% (w/v) fatty acid-free bovine serum albumin (Sigma-Aldrich Corp.). After repeating this rinse and incubation procedure 3 times, 1.0 ml of vehicle, PrRP or Compound X was added to each well and plates were left to incubate for 30 min at 37° C. 400 μl of the extracellular liquid present in each well was mixed with 2.6 ml of liquid scintillation cocktail and counted by liquid scintillation counting (1272 Clinigamma, LKB/Wallach) to calculate the total [^3H] radioactivity present in each well. All of the reactions were performed in triplicate, at concentrations in the 0.01 to 10,000 nM range, to determine the effects of PrRP and Compound X on basal [^3H]arachidonic acid release from CHO-hGPR10 cells. […]"}, "[11]": {"biological_target": "T1, cloned human wild-type GPR10", "experiment": "[125I]PrRP competition binding to CHO-hGPR10 cell membranes", "conditions": "2-site competition model, site 2, 0.05 nM [125I]PrRP", "experimental": "Next, PrRP and compound X (molecular weight=318.38) were studied in quadruplicate at nanomolar to micromolar concentrations (PrRP at 0.01, 0.1, 0.5, 1, 5, 10, 50 and 100 nM; Compound X at 100, 300, 1000, 3000 and 10,000 nM) to determine their respective displacement of [^125I]PrRP (Amersham Biosciences UK Limited; catalog #IM341, Specific Activity=2000 Ci/mmol) binding to CHO-hGPR10 cell membranes. Membranes (20 μg protein) were incubated with 0.05 nM [^125I]PrRP, Compound X or vehicle, and buffer comprising 20 mM Tris (pH 7.4), 2.0 mM EGTA, 5.0 mM C4H6MgO4, 0.5 mM phenylmethylsulfonyl fluoride, 1.0 μg/ml pepstatin, 1.0 μl/ml protease inhibitor cocktail, and 0.1% (w/v) BSA. All of the reactions were performed in 96-well Basic Flashplates®, terminated by centrifugation (3,000 g×7 min) after a 90 min incubation at room temperature, and radioactive counts associated with membrane-bound [^125I]PrRP were counted in each well using a Microbeta TriLux microscintillation counter. Non-linear regression analysis of the competition binding data was used to calculate inhibition binding constants (IC50 and Ki), which is the concentration of Compound X that occupies half of the CHO-hGPR10 receptors specifically bound by 0.05 nM [^125I]PrRP. […]"}, "[12]": {"biological_target": "T2, cloned human NH2-terminus truncated GPR10 (Homo sapiens, UniProt P49683, L65M)", "T2 construct": "expressed in transfected cells", "T2 sequence (P49683 65-370 L65M limits assumed)": "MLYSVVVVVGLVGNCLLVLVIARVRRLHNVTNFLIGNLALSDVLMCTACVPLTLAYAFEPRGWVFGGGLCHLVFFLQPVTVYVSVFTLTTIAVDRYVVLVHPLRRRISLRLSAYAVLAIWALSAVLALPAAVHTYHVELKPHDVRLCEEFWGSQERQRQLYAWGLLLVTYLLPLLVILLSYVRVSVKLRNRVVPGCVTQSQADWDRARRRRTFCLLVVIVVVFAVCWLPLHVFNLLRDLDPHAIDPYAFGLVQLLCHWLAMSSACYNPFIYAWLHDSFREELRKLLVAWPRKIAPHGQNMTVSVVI", "experiment": "[3H]arachidonic acid release from CHO-T-hGPR10 cells", "assay_type": "cell-based", "experimental": "CHO cells were generated to stably express a cloned truncated form of the human GPR10, as described in Examples 2-3. These CHO-T-hGPR10 cells, which express a truncation of the first 64 amino acids present in the wild-type cloned human GPR10, were cultured in F-12 HAM medium, supplemented with 2.0 mM L-glutamine, 10% (v/v) dialyzed fetal bovine serum, 1.0% hypoxanthine-thymidine supplement and 1.0% G-418 selection agent. All of the cells were maintained at 37° C. in an atmosphere of 5% CO2 and passaged when ˜80% confluent using a non-enzymatic cell dissociation buffer (Sigma-Aldrich Corporation). CHO-T-hGPR10 cells were harvested when ˜70% confluent for use in [^3H]arachidonic acid release assays carried out as described below.\nThe effects of PrRP and Compound X on basal [^3H]arachidonic acid release from CHO-T-hGPR10 cells was performed using exactly the same assay procedure described in Example 7. PrRP and Compound X were each tested in triplicate at concentrations in the 0.01 to 10,000 nM range.\nThe mean radioactive counts (±SEM, N=3) detected in each reaction triplicate were calculated, and binding isotherms were analyzed by non-linear regression, using GraphPad Prism version 3.00 for Windows, to estimate the potency (EC50 with 95% confidence interval) and relative intrinsic activity (Emax as % basal release±SEM) of PrRP and Compound X. The results are shown in FIG. 19. […]"}}, "data": [{"substance": "PrRP (prolactin-releasing peptide), unlabelled", "values": [{"measurement": "[^3H]arachidonic acid release from CHO-T-hGPR10 cells, Emax (as % basal release)", "setting": "[1]", "result": 3.6, "unit": "%"}, {"measurement": "[^3H]arachidonic acid release from CHO-hGPR10 cells, EC50", "setting": "[2]", "result": 0.043, "unit": "nM"}, {"measurement": "[^3H]arachidonic acid release from CHO-hGPR10 cells, Emax (as % 1.0 nM PrRP)", "setting": "[2]", "result": 75.3, "unit": "%"}, {"measurement": "[^3H]arachidonic acid release from CHO-hGPR10 cells, Emax (as a % of 1 nM PrRP)", "setting": "[2]", "result": 105, "unit": "%"}, {"measurement": "IC50", "setting": "[3]", "result": 0.0007, "unit": "nM"}, {"measurement": "Ki", "setting": "[3]", "result": 0.0004, "unit": "nM"}, {"measurement": "IC50", "setting": "[4]", "result": 0.5, "unit": "nM"}, {"measurement": "Ki", "setting": "[4]", "result": 0.29, "unit": "nM"}]}, {"substance": "[^125I]PrRP (radioiodinated prolactin-releasing peptide)", "values": [{"measurement": "Kd", "setting": "[5]", "result": 0.072, "unit": "nM"}, {"measurement": "percent of total binding that was specific", "setting": "[6]", "result": "> 80", "unit": "%"}, {"measurement": "EC50 (read off the curve)", "setting": "[7]", "result": 0.07, "unit": "nM"}, {"measurement": "Kd", "setting": "[8]", "result": 0.07, "unit": "nM"}]}, {"substance": "prolactin-releasing peptide [PrRP]", "values": [{"measurement": "ACTH", "setting": "[9]", "result": "increase"}, {"measurement": "body weight", "setting": "[9]", "result": "reduce"}, {"measurement": "food intake", "setting": "[9]", "result": "reduce"}, {"measurement": "plasma oxytocin", "setting": "[9]", "result": "increase"}, {"measurement": "wakefulness", "setting": "[9]", "result": "promote wakefulness"}, {"measurement": "Emax, relative intrinsic activity", "setting": "[10]; 1.0 μM PrRP alone (Example 9)", "result": "75.3±6.1", "unit": "%"}, {"measurement": "Emax, relative intrinsic activity", "setting": "[10]; as % of 1 nM PrRP, tested alone", "result": "105.4±6.1", "unit": "%"}, {"measurement": "EC50", "setting": "[10]; tested alone", "result": 0.043, "unit": "nM"}, {"measurement": "Ki", "setting": "[11]", "result": 0.29, "unit": "nM"}, {"measurement": "IC50", "setting": "[11]; read-out: IC50 (2) displacement of [125I]PrRP", "result": 0.5, "unit": "nM"}, {"measurement": "Emax, relative intrinsic activity", "setting": "[12]; 1.0 nM PrRP alone, as % basal release", "result": "3.6±4.4", "unit": "%"}, {"measurement": "activity on basal [3H]arachidonic acid release", "setting": "[12]; 0.01 to 10,000 nM", "result": "inactive"}]}]}
